Assay results reported in publication PMC11446282.
Numbering of substitutions follows the chain as printed.

B1: AMOTL2 R14: AMOTL2, R14 to alanine (protein, UniProt Q9Y2J4 1-779, looked up, variant R14A)
Angiomotin-like protein 2: MRTLEDSSGTVLHALIQEQLRYGNLTETRTLLAIQQQALRGGAGTGGTGSPQASLEILAPEDSQVLQQATRQEPQGQEHQGGENHLAENTLYRLCPQPSKGEELPTYEEAKAHSQYYAAQQAGTRPHAGDRDPRGAPGGSRRQDEALRELRHGHVRSLSERLLQLSLERNGARAPSHMSSSHSFPQLARNQQGPPLRGPPAEGPESRGPPPQYPHVVLAHETTTAVTDPRYRARGSPHFQHAEVRILQAQVPPVFLQQQQQYQYLQQSQEHPPPPHPAALGHGPLSSLSPPAVEGPVSAQASSATSGSAHLAQMEAVLRENARLQRDNERLQRELESSAEKAGRIEKLESEIQRLSEAHESLTRASSKREALEKTMRNKMDSEMRRLQDFNRDLRERLESANRRLASKTQEAQAGSQDMVAKLLAQSYEQQQEQEKLEREMALLRGAIEDQRRRAELLEQALGNAQGRAARAEEELRKKQAYVEKVERLQQALGQLQAACEKREQLELRLRTRLEQELKALRAQQRQAGAPGGSSGSGGSPELSALRLSEQLREKEEQILALEADMTKWEQKYLEERAMRQFAMDAAATAAAQRDTTLIRHSPQPSPSSSFNEGLLTGGHRHQEMESRLKVLHAQILEKDAVIKVLQQRSRRDPGKAIQGSLRPAKSVPSVFAAAAAGTQGWQGLSSSERQTADAPARLTTDRAPTEEPVVTAPPAAHAKHGSRDGSTQTEGPPDSTSTCLPPEPDSLLGCSSSQRAASLDSVATSRVQDLSDMVEILI
B2: AMOTL2 T10: AMOTL2, T10 to alanine (protein, UniProt Q9Y2J4 1-779, looked up, variant T10A)
Angiomotin-like protein 2: B1 Angiomotin-like protein 2 with T10A, A14R
B3: AMOTL2 R21: AMOTL2, R21 to alanine (protein, UniProt Q9Y2J4 1-779, looked up, variant R21A)
Angiomotin-like protein 2: B1 Angiomotin-like protein 2 with A14R, R21A
B4: AMOTL2 L32: AMOTL2, L32 to alanine (protein, UniProt Q9Y2J4 1-779, looked up, variant L32A)
Angiomotin-like protein 2: B1 Angiomotin-like protein 2 with A14R, L32A
B5: AMOTL2 E18: AMOTL2, E18 to alanine (protein, UniProt Q9Y2J4 1-779, looked up, variant E18A)
Angiomotin-like protein 2: B1 Angiomotin-like protein 2 with A14R, E18A
B6: AMOTL2 R29: AMOTL2, R29 to alanine (protein, UniProt Q9Y2J4 1-779, looked up, variant R29A)
Angiomotin-like protein 2: B1 Angiomotin-like protein 2 with A14R, R29A
B7: AMOTL2 V11: AMOTL2, V11 to alanine (protein, UniProt Q9Y2J4 1-779, looked up, variant V11A)
Angiomotin-like protein 2: B1 Angiomotin-like protein 2 with V11A, A14R
B8: AMOTL2 T28: AMOTL2, T28 to alanine (protein, UniProt Q9Y2J4 1-779, looked up, variant T28A)
Angiomotin-like protein 2: B1 Angiomotin-like protein 2 with A14R, T28A
B9: AMOTL2 H13: AMOTL2, H13 to alanine (protein, UniProt Q9Y2J4 1-779, looked up, variant H13A)
Angiomotin-like protein 2: B1 Angiomotin-like protein 2 with H13A, A14R
B10: AMOTL2 L20: AMOTL2, L20 to alanine (protein, UniProt Q9Y2J4 1-779, looked up, variant L20A)
Angiomotin-like protein 2: B1 Angiomotin-like protein 2 with A14R, L20A
B11: AMOTL2 L31: AMOTL2, L31 to alanine (protein, UniProt Q9Y2J4 1-779, looked up, variant L31A)
Angiomotin-like protein 2: B1 Angiomotin-like protein 2 with A14R, L31A
B12: AMOTL2 I34: AMOTL2, I34 to alanine (protein, UniProt Q9Y2J4 1-779, looked up, variant I34A)
Angiomotin-like protein 2: B1 Angiomotin-like protein 2 with A14R, I34A
B13: AMOTL2 L12: AMOTL2, L12 to alanine (protein, UniProt Q9Y2J4 1-779, looked up, variant L12A)
Angiomotin-like protein 2: B1 Angiomotin-like protein 2 with L12A, A14R
B14: AMOTL2 Q35: AMOTL2, Q35 to alanine (protein, UniProt Q9Y2J4 1-779, looked up, variant Q35A)
Angiomotin-like protein 2: B1 Angiomotin-like protein 2 with A14R, Q35A
B15: AMOTL2 T30: AMOTL2, T30 to alanine (protein, UniProt Q9Y2J4 1-779, looked up, variant T30A)
Angiomotin-like protein 2: B1 Angiomotin-like protein 2 with A14R, T30A
B16: AMOTL2 Q37: AMOTL2, Q37 to alanine (protein, UniProt Q9Y2J4 1-779, looked up, variant Q37A)
Angiomotin-like protein 2: B1 Angiomotin-like protein 2 with A14R, Q37A
B17: AMOTL2 Q36: AMOTL2, Q36 to alanine (protein, UniProt Q9Y2J4 1-779, looked up, variant Q36A)
Angiomotin-like protein 2: B1 Angiomotin-like protein 2 with A14R, Q36A
B18: AMOTL2 E27: AMOTL2, E27 to alanine (protein, UniProt Q9Y2J4 1-779, looked up, variant E27A)
Angiomotin-like protein 2: B1 Angiomotin-like protein 2 with A14R, E27A
B19: AMOTL2 L15: AMOTL2, L15 to alanine (protein, UniProt Q9Y2J4 1-779, looked up, variant L15A)
Angiomotin-like protein 2: B1 Angiomotin-like protein 2 with A14R, L15A
B20: AMOTL2 Y22: AMOTL2, Y22 to alanine (protein, UniProt Q9Y2J4 1-779, looked up, variant Y22A)
Angiomotin-like protein 2: B1 Angiomotin-like protein 2 with A14R, Y22A
B21: AMOTL2 Q19: AMOTL2, Q19 to alanine (protein, UniProt Q9Y2J4 1-779, looked up, variant Q19A)
Angiomotin-like protein 2: B1 Angiomotin-like protein 2 with A14R, Q19A
B22: AMOTL2 Q17: AMOTL2, Q17 to alanine (protein, UniProt Q9Y2J4 1-779, looked up, variant Q17A)
Angiomotin-like protein 2: B1 Angiomotin-like protein 2 with A14R, Q17A
B23: AMOTL2 I16: AMOTL2, I16 to alanine (protein, UniProt Q9Y2J4 1-779, looked up, variant I16A)
Angiomotin-like protein 2: B1 Angiomotin-like protein 2 with A14R, I16A
B24: EYA3 T88: EYA3, T88 to alanine (protein, UniProt Q99504 1-573, looked up, variant T88A)
Protein phosphatase EYA3: MEEEQDLPEQPVKKAKMQESGEQTISQVSNPDVSDQKPETSSLASNLPMSEEIMTCTDYIPRSSNDYTSQMYSAKPYAHILSVPVSEAAYPGQTQYQTLQQTQPYAVYPQATQTYGLPPFGALWPGMKPESGLIQTPSPSQHSVLTCTTGLTTSQPSPAHYSYPIQASSTNASLISTSSTIANIPAAAVASISNQDYPTYTILGQNQYQACYPSSSFGVTGQTNSDAESTTLAATTYQSEKPSVMAPAPAAQRLSSGDPSTSPSLSQTTPSKDTDDQSRKNMTSKNRGKRKADATSSQDSELERVFLWDLDETIIIFHSLLTGSYAQKYGKDPTVVIGSGLTMEEMIFEVADTHLFFNDLEECDQVHVEDVASDDNGQDLSNYSFSTDGFSGSGGSGSHGSSVGVQGGVDWMRKLAFRYRKVREIYDKHKSNVGGLLSPQRKEALQRLRAEIEVLTDSWLGTALKSLLLIQSRKNCVNVLITTTQLVPALAKVLLYGLGEIFPIENIYSATKIGKESCFERIVSRFGKKVTYVVIGDGRDEEIAAKQHNMPFWRITNHGDLVSLHQALELDFL
B25: EYA3 Y77: EYA3, Y77 to alanine (protein, UniProt Q99504 1-573, looked up, variant Y77A)
Protein phosphatase EYA3: B24 Protein phosphatase EYA3 with Y77A, A88T
B26: EYA3 L81: EYA3, L81 to alanine (protein, UniProt Q99504 1-573, looked up, variant L81A)
Protein phosphatase EYA3: B24 Protein phosphatase EYA3 with L81A, A88T
B27: EYA3 H79: EYA3, H79 to alanine (protein, UniProt Q99504 1-573, looked up, variant H79A)
Protein phosphatase EYA3: B24 Protein phosphatase EYA3 with H79A, A88T
B28: EYA3 K75: EYA3, K75 to alanine (protein, UniProt Q99504 1-573, looked up, variant K75A)
Protein phosphatase EYA3: B24 Protein phosphatase EYA3 with K75A, A88T
B29: EYA3 P91: EYA3, P91 to alanine (protein, UniProt Q99504 1-573, looked up, variant P91A)
Protein phosphatase EYA3: B24 Protein phosphatase EYA3 with A88T, P91A
B30: EYA3 Y90: EYA3, Y90 to alanine (protein, UniProt Q99504 1-573, looked up, variant Y90A)
Protein phosphatase EYA3: B24 Protein phosphatase EYA3 with A88T, Y90A
B31: EYA3 I80: EYA3, I80 to alanine (protein, UniProt Q99504 1-573, looked up, variant I80A)
Protein phosphatase EYA3: B24 Protein phosphatase EYA3 with I80A, A88T

system: PP2A-B55α; assay: Single alanine mutational scan, YFP-tagged interactors immunoprecipitated from HeLa cells, Western blot; assay type: binding, human; conditions: single alanine mutant of YFP-tagged AMOTL2
Method: Standard cloning techniques were used throughout. Point mutations were introduced by whole plasmid polymerase chain reaction (PCR). All constructs were fully sequenced. Synthetic DNA was purchased from GeneArt, Life Technologies and cloned into pcDNA5/FRT/TO (Invitrogen) expression vector containing YFP, resulting in the indicated YFP fusion proteins. These constructs were transiently transfected into HeLa cells 24 hours before harvesting cells. Cells were lysed in lysis buffer [50 mM tris-HCl (pH 7.5), 50 mM NaCl, 1 mM EDTA, 1 mM […], and 0.1% NP-40]. Complexes were immunoprecipitated at 4°C in lysis buffer with green fluorescent protein (GFP)–Trap (ChromoTek) and washed in lysis buffer. Precipitated protein complexes were washed three times in lysis buffer, eluted in 2× SDS sample buffer, and subjected to Western blotting or MS as indicated.

Row | Molecule | Experimental % binding [%]
1 | B1 | 15
2 | B2 | 104
3 | B3 | 60
4 | B4 | 118
5 | B5 | 133
6 | B6 | 4
7 | B7 | 114
8 | B8 | 4
9 | B9 | 110
10 | B10 | 98
11 | B11 | 115
12 | B12 | 15
13 | B13 | 88
14 | B14 | 61
15 | B15 | 85
16 | B16 | 44
17 | B17 | 76
18 | B18 | 165
19 | B19 | 32
20 | B20 | 25
21 | B21 | 120
22 | B22 | 143
23 | B23 | 32

same assay, conditions: single alanine mutant of YFP-tagged EYA3

Row | Molecule | Experimental % binding [%]
24 | B24 | 1
25 | B25 | 20
26 | B26 | 20
27 | B27 | 10
28 | B28 | 45
29 | B29 | 5
30 | B30 | 5
31 | B31 | 5
